The values that follow are results of earlier work, collected in publication PMC3024536.

The series has as its target CD8αα (Mus musculus) (UniProt P01731).
Chain of UniProt P01731 (P01731 28-196): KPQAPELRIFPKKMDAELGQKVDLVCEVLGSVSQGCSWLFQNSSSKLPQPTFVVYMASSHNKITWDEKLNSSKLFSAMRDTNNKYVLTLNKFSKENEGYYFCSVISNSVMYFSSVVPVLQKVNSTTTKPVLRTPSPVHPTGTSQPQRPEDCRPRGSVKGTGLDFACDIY

With “thymus leukaemia antigen (TL) (from UniProt P14432)”, the Kd is 12 µM.
